Measured values from patent publication US20220387586A1.

What was measured:
[1] = biological target: cynomolgus LAG3 on cells (cynomolgus); experiment: flow cytometry on activated cynomolgus PBMC, 10 µg/ml; control (only 2nd Ab (hu): 7.62)
[2] = biological target: human Fc tagged human Lag3 extra cellular domain (human) (UniProt P18627); experiment: FACS, inhibition of biotinylated Lag3:Fc binding to MHC-II on A375 cells (competitor MHC-II); control at 10 µg/ml
Chain of human Fc tagged human Lag3 extra cellular domain (human) (P18627 29-450): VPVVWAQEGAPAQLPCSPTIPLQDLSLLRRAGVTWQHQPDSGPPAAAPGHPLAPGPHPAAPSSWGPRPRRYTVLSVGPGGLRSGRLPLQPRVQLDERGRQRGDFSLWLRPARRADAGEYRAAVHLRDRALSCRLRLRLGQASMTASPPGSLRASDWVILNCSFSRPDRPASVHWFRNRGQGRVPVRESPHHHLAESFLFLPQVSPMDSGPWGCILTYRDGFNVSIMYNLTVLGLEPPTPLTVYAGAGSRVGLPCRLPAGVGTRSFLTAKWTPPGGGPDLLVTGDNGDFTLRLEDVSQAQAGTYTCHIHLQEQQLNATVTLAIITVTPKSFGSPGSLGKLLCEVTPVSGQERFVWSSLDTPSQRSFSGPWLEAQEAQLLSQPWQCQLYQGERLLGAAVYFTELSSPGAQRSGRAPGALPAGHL

% positive cyno cells (PBLs) after CD3/CD28 activation [1] | % Inhibition [2] | Substance
9.19% |  | DP47 (human isotype) (antibody)
 | -2.9% | human IgG1 isotype control (Sigma, cat.no. #I5154) (antibody)
